T1: recombinant human FGFR4 Fc Chimera (human, UniProt P22455 22-369)
T1 construct: Fibroblast Growth Factor receptor 4 (FGFR4), human, extracellular domain; also called FGFR4^ECD; extracellular domain (ECD) of FGFR4; source: bought: R&D systems 685-FR and BioLegend 752502
T1 sequence (looked up): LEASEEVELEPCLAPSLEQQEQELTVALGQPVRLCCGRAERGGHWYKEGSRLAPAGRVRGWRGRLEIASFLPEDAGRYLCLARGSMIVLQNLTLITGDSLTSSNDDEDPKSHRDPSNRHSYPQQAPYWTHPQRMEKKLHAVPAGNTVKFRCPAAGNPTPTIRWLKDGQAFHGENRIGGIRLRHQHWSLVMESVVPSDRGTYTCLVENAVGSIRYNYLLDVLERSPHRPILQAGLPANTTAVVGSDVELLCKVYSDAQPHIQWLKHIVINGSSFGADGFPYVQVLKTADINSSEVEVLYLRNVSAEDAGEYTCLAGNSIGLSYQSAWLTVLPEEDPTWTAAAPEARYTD


Legend:
[1] = target: T1, recombinant human FGFR4 Fc Chimera; assay: in vitro competitive binding assay (solid phase, bound AP activity); as a8; the peptide (100 uM) against coated FGFR4 Fc Chimera; settings: both partners purified
[2] = target: T1, recombinant human FGFR4 Fc Chimera; assay: in vitro binding assay (solid phase, bound AP activity); titration of RSPO2-AP on coated FGFR4 Fc Chimera (R&D systems 685-FR); Scatchard analysis; settings: one partner purified

binding result [1] | Kd [2] | Binder
binds |  | KKPVKDTILC (stretch of the TSP1 domain of human R-Spondin 2 (RSPO2)) [KC peptide (10-mer derived from the human RSPO2 TSP1 domain)]
binds |  | TRQIVKKPVK (stretch of the TSP1 domain of human R-Spondin 2 (RSPO2)) [TK peptide (10-mer derived from the human RSPO2 TSP1 domain)]
 | 1.5 nM | human RSPO2-AP (alkaline-phosphatase-tagged R-Spondin 2 fusion protein) (ligand, UniProt Q6UXX9 22-243, looked up, R-Spondin 2 (RSPO2), human; also called R2; source: HEK293T, transfected, conditioned medium) QGNRWRRSKRASYVSNPICKGCLSCSKDNGCSRCQQKLFFFLRREGMRQYGECLHSCPSGYYGHRAPDMNRCARCRIENCDSCFSKDFCTKCKVGFYLHRGRCFDECPDGFAPLEETMECVEGCEVGHWSEWGTCSRNNRTCGFKWGLETRTRQIVKKPVKDTILCPTIAESRRCKMTMRHCPGGKRTPKAKEKRNKKKKRKLIERAQEQHSVFLATDRANQ
